Assay results: US20260049279A1 (published 2026)

Biological target: T1, ALK peptide on H-2Dd (mouse)
T1 peptide: PGPGRVAKI
Experiment: multimer staining

B1: Clonotype_1 (Table 1) (TCR, V domains shown)
Valpha: QQKVQQSPESLSVPEGGMASFNCTSSDRNFQYFWWYRQHSGEGPKALMSIFSDGDKKEGRFTAHLNKASLHVSLHIRDSQPSDSALYFCAASEHGNNRIFFGDGTQLVVKP
Vbeta: ETAVFQTPNYHVTQVGNEVSFNCKQTLGHDTMYWYKQDSKKLLKIMFSYNNKQLIVNETVPRRFSPQSSDKAHLNLRIKSVEPEDSAVYLCASSQDWDEQYFGPGTRLTVL
binding result: recognises
